Assay results from the supplement of paper PMC9732359.
± gives the uncertainty stated by the source.

Assay: protein stability index of a GFP-peptide fusion (yeast GPS) (PSI 1-4); higher = more stable; sorted into four equal gates, so the index is relative within each strain
How it was run: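 The protein stability index of a peptide was calculated by multiplying its read frequency in each gate by that gate's number and adding the products. The peptides were tiled 17-residue stretches of yeast proteins, fused downstream of GFP on a Cherry-expressing plasmid and carried in yeast as a pooled library. Mid-log cultures in leucine-free medium were sorted into four equal gates by GFP/Cherry ratio, and each gate's plasmids were PCR-amplified and Illumina-sequenced.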

Sequence | protein stability index (doa10∆) | protein stability index (pdr5∆) | protein stability index (san1∆) | protein stability index (ubr1∆)
AAASESDVAKQLASFGY [RPL16B] | 2.67 ± 0.032 | 2.62 ± 0.028 | 2.28 ± 0.037 | 2.356 ± 0.019
AAATFPIAQPATDVEAR [RPL13A] | 2.65 ± 0.05 | 2.38 ± 0.042 | 2.71 ± 0.066 | 2.29 ± 0.04
AAEGLCKLFLADVFTDD [YCG1] | 3.25 ± 0.061 | 3.26 ± 0.061 | 3.14 ± 0.043 | 3.14 ± 0.039
AAGTSQARTATLKYICA [RPC10] | 2.16 ± 0.15 | 2.07 ± 0.11 | 1.72 ± 0.11 | 2.24 ± 0.094
AAKKRRPAAKGKNLSFK [RRP6] | 2.35 ± 0.24 | 2.77 ± 0.14 | 2.35 ± 0.2 | 2.72 ± 0.1
AALANANNNINSASSAP [SWI1] | 2.55 ± 0.088 | 1.91 ± 0.068 | 2.88 ± 0.13 | 2.55 ± 0.12
AALERLKIFEGIPPPYD [RPL16B] | 1.62 ± 0.12 | 2.52 ± 0.089 | 1.34 ± 0.23 | 1.27 ± 0.064
AALGMGLCMLGTGKPEA [RPN2] | 3.46 ± 0.13 | 3.32 ± 0.094 | 3.44 ± 0.066 | 3.36 ± 0.088
AALYKEVYNVIASDGSY [RPO21] | 2.34 ± 0.089 | 1.77 ± 0.1 | 2.22 ± 0.15 | 3.06 ± 0.12
AANEGTAVSFVSAAEDE [PRP28] | 2.96 ± 0.24 | 3.46 ± 0.23 | 3.01 ± 0.19 | 
AATNETFENINSLFYLK [IRR1] | 2.43 ± 0.25 | 2.37 ± 0.21 | 2.71 ± 0.17 | 
AATVHTATSSSIILSDK [SSN2] | 2.19 ± 0.043 | 2.29 ± 0.032 | 2.02 ± 0.053 | 2.39 ± 0.041
AAVLSNLQGDLQAIQEK [ITC1] |  |  | 3.31 ± 0.16 | 
ACEPTAEKFVPIDIFQI [SIR3] | 2.72 ± 0.092 | 2.71 ± 0.059 | 2.66 ± 0.07 | 2.98 ± 0.048
ACGAFININEFALPAGS [CDC53] | 2.36 ± 0.096 | 2.53 ± 0.091 | 1.99 ± 0.12 | 1.87 ± 0.074
ACVPLLPPPEDVAFLKT [RPN1] | 2.65 ± 0.053 | 2.4 ± 0.053 | 2.79 ± 0.043 | 2.65 ± 0.048
ADLDSLIIRNDSLSGAV [RPT3] | 3.12 ± 0.077 | 3.06 ± 0.058 | 2.82 ± 0.049 | 3 ± 0.049
ADLESFANNHFLNSNAV [COR1] | 2.63 ± 0.11 | 2.87 ± 0.074 | 2.99 ± 0.056 | 2.71 ± 0.082
ADLQGSEDHSFRKIKLR [RPS1A] | 3.17 ± 0.051 | 3.13 ± 0.061 | 3.06 ± 0.047 | 3.15 ± 0.048
ADPVALYLGLKRGEVVK [RPB5] | 1.67 ± 0.24 | 1.6 ± 0.15 | 1.32 ± 0.14 | 1.37 ± 0.13
ADVLYKTAFKPHELTES [QCR2] | 3.11 ± 0.062 | 3.17 ± 0.059 | 2.98 ± 0.051 | 3.15 ± 0.045
ADVSKLMYSITFHHHGR [SRB2] | 2.82 ± 0.053 | 3.01 ± 0.056 | 2.79 ± 0.049 | 2.98 ± 0.04
ADWDPESMAYTAFQTQR [YML031W/NDC1] | 2.89 ± 0.14 | 3.34 ± 0.11 | 3.24 ± 0.17 | 3.36 ± 0.12
ADYNGALLRVTKSKNKT [POP4] | 2.61 ± 0.066 | 2.14 ± 0.058 | 2.42 ± 0.077 | 2.36 ± 0.053
AEASGEAADEADEADEE [RPS9A] | 3.35 ± 0.23 | 3.03 ± 0.28 | 3.01 ± 0.15 | 3.45 ± 0.12
AEDQILANFVAKGFYHT [SRB8] | 2.91 ± 0.092 | 3.25 ± 0.055 | 3.25 ± 0.12 | 3.05 ± 0.065

Sequence | protein stability index (doa10∆) | protein stability index (pdr5∆) | protein stability index (san1∆) | protein stability index (ubr1∆)
AEGQTNSISDFLGEQVN [RPN1] | 3.06 ± 0.079 | 2.89 ± 0.067 | 2.98 ± 0.077 | 3.12 ± 0.059
AELEELEEFEFKHGPMS [SMD2] | 3.42 ± 0.078 | 3.41 ± 0.063 | 3.15 ± 0.058 | 3.34 ± 0.071
AELELVDSLDPFSEGVT [SMC4] | 2.84 ± 0.072 | 2.64 ± 0.061 | 2.75 ± 0.12 | 3.11 ± 0.054
AELLVLKILKQVMEEKL [PUP2] | 2.73 ± 0.16 | 2.75 ± 0.087 | 2.69 ± 0.24 | 2.56 ± 0.24
AEMEADSLASELTLAEQ [SMC4] |  |  | 2.94 ± 0.15 | 3.39 ± 0.26
AENLLQLKTGLAAIVST [YGL172W/NUP49] |  | 3.3 ± 0.19 | 2.99 ± 0.087 | 2.5 ± 0.2
AESFTDEADSSMTEASV [SNF2] | 3.36 ± 0.094 | 3.19 ± 0.092 | 3.39 ± 0.05 | 3.09 ± 0.089
AFKATNQTNINSLAVRG [SCL1] | 3.1 ± 0.11 | 3.21 ± 0.085 |  | 2.84 ± 0.11
AFKKIDAITVKDVKAWA [COR1] | 2.06 ± 0.076 | 1.91 ± 0.072 | 1.83 ± 0.14 | 1.9 ± 0.039
AFKSVVSTETFEQPSQR [RPL27A] | 2.88 ± 0.062 | 2.82 ± 0.059 | 2.71 ± 0.053 | 3.11 ± 0.067
AFPHLYNSRPRSVRIPW [PRP8] | 2.94 ± 0.1 | 2.45 ± 0.084 | 1.7 ± 0.13 | 2.59 ± 0.066
AFPNASKKNRPTLQVGD [RRP40] | 2.09 ± 0.19 | 2.75 ± 0.11 | 2.78 ± 0.16 | 2.99 ± 0.17
AFRTIESKSDDNSATSY [RRI1] | 3.06 ± 0.079 | 3.26 ± 0.079 | 3.15 ± 0.053 | 3.34 ± 0.091
AFSPLTTTRIQSQQAQP [MED2] | 2.7 ± 0.055 | 2.83 ± 0.044 | 2.52 ± 0.061 | 2.8 ± 0.036
AGDLRALDTVTNVLNFI [FAS1] | 3.04 ± 0.1 | 3.22 ± 0.14 | 2.95 ± 0.11 | 2.54 ± 0.24
AGHVSGVITVHNVFSKE [RPN14] | 1.85 ± 0.15 | 1.75 ± 0.14 | 2.92 ± 0.077 | 2.79 ± 0.13
AGKVKSQTPKVEKTEKP [RPS30A] | 3.18 ± 0.078 | 2.9 ± 0.093 | 2.95 ± 0.072 | 2.93 ± 0.055
AGSAALKIIHDTFRWVG [RPO31] | 3.23 ± 0.093 | 2.85 ± 0.12 | 1.19 ± 0.17 | 3.24 ± 0.063
AGSGSTFIYGYCDKNFR [PRE3] | 1.24 ± 0.085 | 1.42 ± 0.057 | 1.51 ± 0.099 | 1.49 ± 0.059
AGVPRQAINLGQVVLTP [RPL14A] | 2.09 ± 0.15 | 2.64 ± 0.13 | 1.58 ± 0.23 | 2.04 ± 0.21
AGVSHGTLGEIFIRCNN [SMX3] | 3.57 ± 0.14 | 3.37 ± 0.096 | 2.91 ± 0.094 | 3.29 ± 0.08
AHDYNNDQDMFTIVSLV [YML103C/NUP188] | 2.76 ± 0.21 | 3.11 ± 0.16 | 3.23 ± 0.12 | 2.95 ± 0.13
AHEISQGVYGAVYETLI [BRR2] | 3.33 ± 0.082 | 3.11 ± 0.07 | 3.16 ± 0.061 | 3.37 ± 0.082
AHFWKPVLNLDKLWTLI [RPL28] | 2.22 ± 0.045 | 2.3 ± 0.047 | 2.09 ± 0.071 | 1.65 ± 0.032
AHKGQIVLIKGISSAYI [SNU114] | 1.56 ± 0.07 | 1.48 ± 0.064 | 1.89 ± 0.069 | 1.86 ± 0.053
